How the values were obtained:
[1] = molecular target: T1, Recombinant human PD-1 (Beijing Sino Biological Inc., Catalog No. 10377-H08H) (human, UniProt Q15116 25-167); assay: ELISA, human PD-1 coated on the plate, anti-human IgG-HRP detection
T1 construct: Bought recombinant protein

[2] = molecular target: T1, Recombinant human PD-1 (Beijing Sino …); assay: ELISA, human PD-1 coated on the plate, anti-human IgG-HRP detection; control

T1 sequence (Q15116 25-167 limits assumed): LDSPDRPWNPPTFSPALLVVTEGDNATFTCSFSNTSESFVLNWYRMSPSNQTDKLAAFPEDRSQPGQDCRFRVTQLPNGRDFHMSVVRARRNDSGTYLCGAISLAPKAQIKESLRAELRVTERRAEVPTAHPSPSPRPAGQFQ

Binder | binding result [1] | binding result [2]
anti-PD-1 (Pembro)/VEGF (G631) heterodimeric antibody (bispecific antibody, human IgG1, kappa, N297A, Heterodimer of two half antibodies; it is not spelled out for this molecule; also called anti-PD-1 (Pembro)/VEGF (G631) heterodimer antibody) heavy 1: QVQLVQSGVEVKKPGASVKVSCKASGYTFTNYYMYWVRQAPGQGLEWMGGINPSNGGTNFNEKFKNRVTLTTDSSTTTAYMELKSLQFDDTAVYYCARRDYRFDMGFDYWGQGTTVTVSSASTKGPSVFPLAPSSKSTSGGTAALGCLVKDYFPEPVTVSWNSGALTSGVHTFPAVLQSSGLYSLSSVVTVPSSSLGTQTYICNVNHKPSNTKVDKKVEPKSCDKTHTCPPCPAPELLGGPSVFLFPPKPKDTLMISRTPEVTCVVVDVSHEDPEVKFNWYVDGVEVHNAKTKPREEQYASTYRVVSVLTVLHQDWLNGKEYKCKVSNKALPAPIEKTISKAKGQPREPQVYTLPPSRDELTKNQVSLLCLVKGFYPSDIAVEWESNGQPENNYKTTPPVLRSDGSFFLYSKLTVDKSRWQQGNVFSCSVMHEALHNHYTQKSLSLSPGK light 1: EIVLTQSPATLSLSPGERATLSCRASKGVSTSGYSYLHWYQQKPGQAPRLLIYLASYLESGVPARFSGSGSGTDFTLTISSLEPEDFAVYYCQHSRDLPLTFGGGTKVEIKRTVAAPSVFIFPPSDEQLKSGTASVVCLLNNFYPREAKVQWKVDNALQSGNSQESVTEQDSKDSTYSLSSTLTLSKADYEKHKVYACEVTHQGLSSPVTKSFNRGEC heavy 2: EVQLVESGGGLVQPGGSLRLSCAASGFTISDYWIHWVRQAPGKGLEWVAGITPAGGYTYYADSVKGRFTISADTSKNTAYLQMNSLRAEDTAVYYCARFVFFLPYAMDYWGQGTLVTVSSASTKGPSVFPLAPSSKSTSGGTAALGCLVKDYFPEPVTVSWNSGALTSGVHTFPAVLQSSGLYSLSSVVTVPSSSLGTQTYICNVNHKPSNTKVDKKVEPKSCDKTHTCPPCPAPELLGGPSVFLFPPKPKDTLMISRTPEVTCVVVDVSHEDPEVKFNWYVDGVEVHNAKTKPREEQYASTYRVVSVLTVLHQDWLNGKEYKCKVSNKALPAPIEKTISKAKGQPREPQVYTEPPSRDELTKNQVSLTCLVKGFYPSDIAVEWESNGQPENNYKTTPPVLDSDGSFFLLSVLTVDKSRWQQGNVFSCSVMHEALHNHYTQKSLSLSPGK light 2: not shown | binds | 
anti-PD-1 (BJHM)/VEGF (G631) heterodimeric antibody (bispecific antibody, human IgG1, kappa, N297A) heavy 1: EVNLVESGGGLVQPGGSLRLSCAASGFTFSSYGMSWVRQAPGKGLEWVASISGGGRYTYYPDSMKGRFTISRDNSKNNLYLQMNSLRAEDTAVYYCVYEYFYTMDYWGQGTLVTVSSASTKGPSVFPLAPSSKSTSGGTAALGCLVKDYFPEPVTVSWNSGALTSGVHTFPAVLQSSGLYSLSSVVTVPSSSLGTQTYICNVNHKPSNTKVDKKVEPKSCDKTHTCPPCPAPELLGGPSVFLFPPKPKDTLMISRTPEVTCVVVDVSHEDPEVKFNWYVDGVEVHNAKTKPREEQYASTYRVVSVLTVLHQDWLNGKEYKCKVSNKALPAPIEKTISKAKGQPREPQVYTLPPSRDELTKNQVSLLCLVKGFYPSDIAVEWESNGQPENNYKTTPPVLRSDGSFFLYSKLTVDKSRWQQGNVFSCSVMHEALHNHYTQKSLSLSPGK light 1: DIVLTQSPATLSLSPGERATLSCRASQSISNNLHWYQQKPGQAPRLLIRFASQSISGIPARFSGSGSGTDFTLTISSLEPEDFAVYFCQQSDNWPLTFGGGTKVEIKRTVAAPSVFIFPPSDEQLKSGTASVVCLLNNFYPREAKVQWKVDNALQSGNSQESVTEQDSKDSTYSLSSTLTLSKADYEKHKVYACEVTHQGLSSPVTKSFNRGEC heavy 2: EVQLVESGGGLVQPGGSLRLSCAASGFTISDYWIHWVRQAPGKGLEWVAGITPAGGYTYYADSVKGRFTISADTSKNTAYLQMNSLRAEDTAVYYCARFVFFLPYAMDYWGQGTLVTVSSASTKGPSVFPLAPSSKSTSGGTAALGCLVKDYFPEPVTVSWNSGALTSGVHTFPAVLQSSGLYSLSSVVTVPSSSLGTQTYICNVNHKPSNTKVDKKVEPKSCDKTHTCPPCPAPELLGGPSVFLFPPKPKDTLMISRTPEVTCVVVDVSHEDPEVKFNWYVDGVEVHNAKTKPREEQYASTYRVVSVLTVLHQDWLNGKEYKCKVSNKALPAPIEKTISKAKGQPREPQVYTEPPSRDELTKNQVSLTCLVKGFYPSDIAVEWESNGQPENNYKTTPPVLDSDGSFFLLSVLTVDKSRWQQGNVFSCSVMHEALHNHYTQKSLSLSPGK light 2: not shown | binds | 
PD-1 (BJHM) monoclonal antibody (antibody, V domains shown, Control monoclonal antibody; also called anti-human PD-1 antibody PD-1(BJHM)) VH: EVNLVESGGGLVQPGGSLRLSCAASGFTFSSYGMSWVRQAPGKGLEWVASISGGGRYTYYPDSMKGRFTISRDNSKNNLYLQMNSLRAEDTAVYYCVYEYFYTMDYWGQGTLVTVSS VL: DIVLTQSPATLSLSPGERATLSCRASQSISNNLHWYQQKPGQAPRLLIRFASQSISGIPARFSGSGSGTDFTLTISSLEPEDFAVYFCQQSDNWPLTFGGGTKVEIK |  | binds
anti PD-1(BJHM)/VEGF(Bevaci) heterodimeric antibody (bispecific antibody, human IgG1, kappa, N297A) heavy 1: EVNLVESGGGLVQPGGSLRLSCAASGFTFSSYGMSWVRQAPGKGLEWVASISGGGRYTYYPDSMKGRFTISRDNSKNNLYLQMNSLRAEDTAVYYCVYEYFYTMDYWGQGTLVTVSSASTKGPSVFPLAPSSKSTSGGTAALGCLVKDYFPEPVTVSWNSGALTSGVHTFPAVLQSSGLYSLSSVVTVPSSSLGTQTYICNVNHKPSNTKVDKKVEPKSCDKTHTCPPCPAPELLGGPSVFLFPPKPKDTLMISRTPEVTCVVVDVSHEDPEVKFNWYVDGVEVHNAKTKPREEQYASTYRVVSVLTVLHQDWLNGKEYKCKVSNKALPAPIEKTISKAKGQPREPQVYTLPPSRDELTKNQVSLLCLVKGFYPSDIAVEWESNGQPENNYKTTPPVLRSDGSFFLYSKLTVDKSRWQQGNVFSCSVMHEALHNHYTQKSLSLSPGK light 1: DIVLTQSPATLSLSPGERATLSCRASQSISNNLHWYQQKPGQAPRLLIRFASQSISGIPARFSGSGSGTDFTLTISSLEPEDFAVYFCQQSDNWPLTFGGGTKVEIKRTVAAPSVFIFPPSDEQLKSGTASVVCLLNNFYPREAKVQWKVDNALQSGNSQESVTEQDSKDSTYSLSSTLTLSKADYEKHKVYACEVTHQGLSSPVTKSFNRGEC heavy 2: EVQLVESGGGLVQPGGSLRLSCAASGYTFTNYGMNWVRQAPGKGLEWVGWINTYTGEPTYAADFKRRFTFSLDTSKSTAYLQMNSLRAEDTAVYYCAKYPHYYGSSHWYFDVWGQGTLVTVSSASTKGPSVFPLAPSSKSTSGGTAALGCLVKDYFPEPVTVSWNSGALTSGVHTFPAVLQSSGLYSLSSVVTVPSSSLGTQTYICNVNHKPSNTKVDKKVEPKSCDKTHTCPPCPAPELLGGPSVFLFPPKPKDTLMISRTPEVTCVVVDVSHEDPEVKFNWYVDGVEVHNAKTKPREEQYASTYRVVSVLTVLHQDWLNGKEYKCKVSNKALPAPIEKTISKAKGQPREPQVYTEPPSRDELTKNQVSLTCLVKGFYPSDIAVEWESNGQPENNYKTTPPVLDSDGSFFLLSVLTVDKSRWQQGNVFSCSVMHEALHNHYTQKSLSLSPGK light 2: not shown | binds | 

From patent US20210040193A1 (BEIJING HANMI PHARMACEUTICAL, published 2021)
